Biological target: Recombinant myostatin
Experiment: cell-based or functional assay

- macrophage migration towards ZAMS medium (Boyden-type chemotaxis chamber), 5 µg/ml myostatin with 350 protein at 10 and 25 µg/ml: 20 fold
Substance: 350 protein (amino acids 267-350 of bovine myostatin) (from UniProt O18836 267-350)
